Data: patent US20230167426A1 (UNIVERSITY OF MASSACHUSETTS, published 2023)

T1: 6×His-MBP-tagged AnaCas9 (Cas9 from Actinomyces naeslundii) (Actinomyces naeslundii, UniProt J3F2B0 1-1101)
T1 construct: not shown: 6×His-MBP tag
T1 sequence: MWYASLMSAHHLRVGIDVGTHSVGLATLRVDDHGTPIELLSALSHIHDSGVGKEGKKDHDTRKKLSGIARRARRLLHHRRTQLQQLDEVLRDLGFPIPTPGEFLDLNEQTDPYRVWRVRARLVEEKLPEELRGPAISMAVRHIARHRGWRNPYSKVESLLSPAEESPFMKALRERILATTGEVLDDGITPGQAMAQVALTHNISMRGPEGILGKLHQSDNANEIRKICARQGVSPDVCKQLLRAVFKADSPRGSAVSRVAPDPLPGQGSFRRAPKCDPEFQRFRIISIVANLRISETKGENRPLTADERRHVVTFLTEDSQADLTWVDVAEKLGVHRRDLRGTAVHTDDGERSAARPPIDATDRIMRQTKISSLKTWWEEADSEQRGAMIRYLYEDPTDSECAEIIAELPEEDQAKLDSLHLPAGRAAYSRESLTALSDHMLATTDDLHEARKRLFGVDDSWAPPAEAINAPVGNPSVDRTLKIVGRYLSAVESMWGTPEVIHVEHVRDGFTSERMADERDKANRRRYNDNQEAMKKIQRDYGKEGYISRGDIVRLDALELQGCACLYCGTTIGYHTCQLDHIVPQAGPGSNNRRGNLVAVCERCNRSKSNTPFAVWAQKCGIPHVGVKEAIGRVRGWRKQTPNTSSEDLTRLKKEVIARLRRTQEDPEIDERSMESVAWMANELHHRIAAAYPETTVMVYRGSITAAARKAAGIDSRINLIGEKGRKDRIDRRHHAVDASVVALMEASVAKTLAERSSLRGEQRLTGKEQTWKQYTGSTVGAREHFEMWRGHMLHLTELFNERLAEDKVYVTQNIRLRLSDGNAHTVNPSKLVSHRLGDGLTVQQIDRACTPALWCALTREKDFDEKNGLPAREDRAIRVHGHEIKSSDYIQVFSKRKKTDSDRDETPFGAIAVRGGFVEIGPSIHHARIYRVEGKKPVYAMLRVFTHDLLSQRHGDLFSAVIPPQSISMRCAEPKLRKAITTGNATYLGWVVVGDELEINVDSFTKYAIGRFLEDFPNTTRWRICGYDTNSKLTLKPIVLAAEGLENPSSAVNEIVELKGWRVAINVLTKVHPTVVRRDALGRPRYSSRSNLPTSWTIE

T2: 6×His-tagged NmeCas9 (Neisseria meningitidis Cas9) (Neisseria meningitidis, UniProt C9X1G5 1-1082)
T2 sequence: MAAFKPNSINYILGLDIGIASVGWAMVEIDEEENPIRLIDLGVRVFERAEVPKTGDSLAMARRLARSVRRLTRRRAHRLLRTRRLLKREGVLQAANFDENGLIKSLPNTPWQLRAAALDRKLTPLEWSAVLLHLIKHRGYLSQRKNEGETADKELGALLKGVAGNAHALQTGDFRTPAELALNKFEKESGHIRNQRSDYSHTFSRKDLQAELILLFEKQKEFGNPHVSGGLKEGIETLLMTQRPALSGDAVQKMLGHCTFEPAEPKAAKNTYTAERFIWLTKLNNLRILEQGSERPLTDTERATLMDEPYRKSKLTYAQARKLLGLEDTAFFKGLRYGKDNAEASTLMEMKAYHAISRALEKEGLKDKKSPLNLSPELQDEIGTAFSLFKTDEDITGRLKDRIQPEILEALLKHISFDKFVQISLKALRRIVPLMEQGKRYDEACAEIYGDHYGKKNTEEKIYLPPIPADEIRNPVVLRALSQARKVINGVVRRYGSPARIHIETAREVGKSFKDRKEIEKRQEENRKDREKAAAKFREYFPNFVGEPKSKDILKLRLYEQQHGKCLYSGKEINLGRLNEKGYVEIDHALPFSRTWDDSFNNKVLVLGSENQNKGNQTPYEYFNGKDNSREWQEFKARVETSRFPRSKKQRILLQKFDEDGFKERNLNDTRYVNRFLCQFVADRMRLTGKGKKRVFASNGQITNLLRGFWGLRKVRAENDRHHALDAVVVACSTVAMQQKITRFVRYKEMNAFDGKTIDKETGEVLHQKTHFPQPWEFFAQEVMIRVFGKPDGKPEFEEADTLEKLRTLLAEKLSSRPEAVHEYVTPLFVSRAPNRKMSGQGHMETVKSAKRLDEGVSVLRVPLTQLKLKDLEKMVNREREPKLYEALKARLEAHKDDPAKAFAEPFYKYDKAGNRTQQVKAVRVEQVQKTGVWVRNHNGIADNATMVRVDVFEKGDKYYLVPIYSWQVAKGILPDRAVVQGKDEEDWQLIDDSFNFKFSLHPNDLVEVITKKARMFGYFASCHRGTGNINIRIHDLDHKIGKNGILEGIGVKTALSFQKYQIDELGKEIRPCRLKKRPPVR

B1: AcrIIC1Nme (Neisseria meningitidis Acr #1) (other)
chain: MANKTYKIGKNAGYDGCGLCLAAISENEAIKVKYLRDICPDYDGDDKAEDWLRWGTDSRVKAAALEMEQYAYTSVGMASCWEFVEL
notes: also called Acr1Nm
B2: AcrE2 (type I-E anti-CRISPR from Pseudomonas phage JBD88a) (other)
chain: MANTYLIDPRKNNDNSGERFTVDAVDITAAAKSAAQQILGEEFEGLVYRETGESNGSGMFQAYHHLHGTNRTETTVGYPFHVMEL
notes: also called Acr88a-32; Acr88-32
B3: FLAG-AcrIIC3Nme (AcrIIC3Nme with an N-terminal FLAG tag) (other)
chain: DYKDDDDKMAFKRAIIFTSFNGFEKVSRTEKRRLAKIINARVSIIDEYLRAKDTNASLDGQYRAFLFNDESPAMTEFLAKLKAFAESCTGISIDAWEIEESEYVRLPVERRDFLAAANGKEIFKI
notes: also called 6xHis-TEV-FLAG-AcrIIC3Nme (before TEV cleavage)

What was measured:
[1] = biological target: T1, 6×His-MBP-tagged AnaCas9 (Cas9 from …); assay: nickel affinity pulldown with tagged AnaCas9, SDS-PAGE/Coomassie
[2] = biological target: T2, 6×His-tagged NmeCas9 (Neisseria …); assay: cell-based or functional assay
[3] = biological target: T2, 6×His-tagged NmeCas9 (Neisseria …); assay: nickel affinity pulldown with 6×His-NmeCas9:sgRNA, SDS-PAGE/Coomassie

Row | Binder | binding result [1] | inhibition of in vitro DNA cleavage by NmeCas9, anti-CRISPR at 1:1 molar ratio [2] [%] | binding result [3]
1 | B1 | no binding | ~50 | –
2 | B2 | – | – | no binding
3 | B3 | no binding | ~50 | –
